The text below walks through data of US20050085416A1, “Biologically active complex” (priority 2002, published 2005).

Where “and” joins values, the source holds several entries; their conditions need not be identical. Equal entries are not always repeated. Entries after “also recorded” stand apart in the source; their conditions may differ. Where two headings read alike, the source gives them in different places.

Series [1] is described as follows: Ca2+ titration in the presence of chromophoric chelator quin 2. The class given is binding. The conditions noted are these: for Ca2+ binding: quin 2 titration; for Ka, calcium association constant: 2 mM Tris/HCl, chelator quin 2; for Kd: read-out: KD, calcium. An excerpt: To study the Ca^2+ binding equilibrium, the proteins listed in table 1 including the D87A BAMLET obtained as described in Example 7, and HAMLET, was titrated with calcium in the presence of a chromophoric chelator, quin 2, for which the absorbance at 263 nm decreases (approx. 85%) upon Ca^2+-binding. The method relies on competition for calcium between the protein and chelator, and can be used to quantitate high affinity sites (ca. 10^7-5·10^9 M^−1 at low salt, and ca. 5 10^5-1·10^8 M^−1 at 0.15 NaCl) when quin 2 is the chelator. The exact concentration of the chelator solution (in the range of 25-30 μM) was calculated from the absorbance at 239.5 nm in the presence of excess calcium (using ε239.5=4.2×10^4 L mol^−1 cm^−1 for quin 2). Lyophilised protein was dissolved in calcium free (<1 μM Ca^2+) chelator solution at a concentration of 25-30 μM. The absorbance at 263 nm (A263) was recorded for the protein/chelator solution using a UV/Vis 920 spectrophotometer (GBC Scientific Equipment Pty Ltd, Victoria, Australia). Calcium solution (3 mM CaCl2 in 2 mM Tris/HCl, pH 7.5, with or without 0.15 M NaCl) was added in portions of 4 μl. A263 was recorded after each calcium addition.
A more concentrated Ca^2+ stock (10 mM) was used at the end of the titrations of the proteins in 0.15 M NaCl. The data was analysed by least squares fitting directly to the measured quantity, absorbance versus total calcium concentration, using the CaLigator software (Andre and Linse, 2002).

Series [2] concerns L1210 leukaemia cells. Briefly: DNA fragmentation (oligonucleosome length fragments, agarose gel) in L1210 cells. The conditions noted are these: L1210, six hours. Type of series: cell-based, mouse. How it is done: Oligonucleosome length DNA fragments were detected by agarose gel electrophoresis. The cell suspension remaining after trypan blue (970 μl, 2×10^6/ml) was lysed in 5 mM Tris, 20 mM EDTA, 0.5% Triton X-100 pH 8.0 at 4° C. for 1 hour and centrifuged at 13,000×g for 15 minutes. DNA was ethanol precipitated over night in −20° C., treated with proteinase K and RNAse, loaded on 1.8% agarose gels and electrophoresed with constant voltage set at 50V over night. DNA fragments were visualised with ethidium bromide using a 305 nm UV-light source and photographed using Polaroid type 55 positive-negative film.

The subject of series [3] is L1210 leukaemia cells. Nature of the series: Apoptosis bioassay: L1210 cell viability by Trypan blue exclusion. Type of series: cell-based, mouse. The following applies: for loss of cell viability: L1210, 0.3 mg/ml; for LD50: L1210 cells; for apoptosis induction / biological activity: apoptosis assay. How it is done: The different agonists were dissolved in cell culture medium, without fetal calf serum, and added to the cells (final volume 1 ml per well). Plates were incubated at 37° C. in 5% CO2 atmosphere and 100 μl of fetal calf serum was added to each well after 30 minutes. Cell culture medium served as a control.
Cell viability was determined by Trypan blue exclusion after six hours of incubation. For analysis, 30 μl of the cell suspension was mixed with 30 μl of a 0.2% trypan blue solution and the number of stained cells (dead cells) per 100 cells was determined by interference contrast microscopy (Ortolux II, Leitz Wetzlar, Germany).

The conditions of series [4]: cited from earlier work; for calcium binding: point mutants of bovine α-lactalbumin.
Series [5] in a line: Spectroscopy (near UV CD, fluorescence, ANS) after addition of excess calcium. Type of series: binding. The following applies: excess calcium (1 mM), no spectral changes. The method, then:
The products were then subjected to spectroscopic analysis. The proteins or protein fractions were dialyzed against doubly distilled water and lyophilised. Stock solutions were prepared by dissolving the lyophilised material in 10 mM potassium phosphate buffer at pH 7.5, and concentrations determined as the absorbance at 280 nm (A/l=C (mg/ml) where 1 mg/ml of α-lactalbumin is 70 μM). The spectra were recorded at the appropriate dilution.
Circular Dichroism (CD) spectra were obtained on a JASCO J-720 spectro-polarimeter with a JASCO PTC-343 Peltier type thermostated cell holder. Quartz cuvettes were used with 1 cm path length and spectra were recorded at 25° C. between 240 and 320 nm. […] Six scans were recorded and averaged for each spectrum. Baseline spectra were recorded with pure buffer in the cuvette and substracted from the protein spectra.
Fluorescence spectra were recorded at 25° C. on a Perkin Elmer LS-50B spectrometer using a quartz cuvette with 1 cm excitation path length. Intrinsic (tryptophan) fluorescence emission spectra were recorded between 305 and 530 nm (step 1 nm) with excitation at 295 nm. […] ANS fluorescence emission spectra were recorded at 25° C. on a Perkin Elmer LS-50B spectrometer using a quartz cuvette with 1 cm excitation path length, between 400 and 600 nm (step 1 nm) with excitation at 385 nm. […]

The mark [6] stands for this setting: L1210, six hours, 0.3 mg/ml, reduced from 99%.
Where [7] appears, read: 5 mM Tris, 0.1 mM EDTA, pH 7.2, 298 K, CD 270 nm.
[8] abbreviates: 10 mM Tris/HCl, no salt, pH 7.5, 298 K, ITC.
[9] abbreviates: L1210, 6 hours' exposure, 0.5 mg/ml, from 98%.

The term cell viability denotes a per cent measure of how many cells are alive, often set against a control. The low end stands for a greater loss of cells, the high end for better survival. For the molecule BAMLET, the “Ca2+ binding” value in series [1] is “shown to bind Ca^2+”. In addition, in the series with L1210 leukaemia cells [2], the “DNA fragmentation” value was “stimulated the formation of the characteristic DNA ladder; also recorded: induces DNA fragmentation”. In addition, in the series with L1210 leukaemia cells [3], the “loss of cell viability” value is given as “equally sensitive” and the LD50 worked out at 0.2 mg/mL. This molecule displayed a cell viability in the series on L1210 leukaemia cells [3] (L1210, 6 hours' exposure, reduced from 98%, concentration not given) of 4%. Moreover, the cell viability with L1210 leukaemia cells [3] (setting [6]) came out at 12%.
For α-lac bovine: bovine α-lactalbumin, the “Ka” value in series [4] (setting [7]) is 2.5e+08 M⁻¹; in series [4] (setting [8]), 4.3e+08 M⁻¹; in series [4] (10 mM Tris/HCl, pH 8, DSC), 2.85e+08 M⁻¹; in series [4] (10 mM ammonium bicarbonate, pH 7.8, EGTA, fluorescence) it was 4.8e+07 M⁻¹; in series [4] (20 mM Tris, pH 7.5, 298 K, fluorescence, Hummel & Dryer method) it was 2.7e+06 M⁻¹; in series [4] (20 mM Tris, pH 7.5, 298 K, microcalorimetry), 2.5e+06 M⁻¹. For the same molecule, the “Ka” value in series [4] (50 mM Hepes, pH 8, 293 K, fluorescence) is 4e+08 M⁻¹; in series [4] (50 mM Hepes, pH 8, 310 K, fluorescence), 2e+07 M⁻¹; in series [4] (H2O, 100 mM KCl, pH 7, 294 K, EDTA, 43Ca-NMR), 2e+07 M⁻¹; in series [4] (H2O, 100 mM KCl, pH 8, 294-298 K, EGTA 13C-NMR) it was 2e+07 M⁻¹.

B1: D87A: bovine α-lactalbumin with aspartic acid at position 87 substituted by alanine (protein, UniProt P00711 20-142, looked up, variant D87A)
Alpha-lactalbumin: EQLTKCEVFRELKDLKGYGGVSLPEWVCTTFHTSGYDTQAIVQNNDSTEYGLFQINNKIWCKDDQNPHSSNICNISCDKFLDDDLTADIMCVKKILDKVGINYWLAHKALCSEKLDQWLCEKL
Consider B1, for which the “calcium binding” value is given as “did not bind calcium” in series [5] and “totally abolished calcium binding” in series [4]. In addition, the “apoptosis induction / biological activity” value in the series on L1210 leukaemia cells [3] is “biologically inactive”.

B2: αlac goat: goat α-lactalbumin (protein, UniProt P00712 20-142, looked up)
Alpha-lactalbumin: EQLTKCEVFQKLKDLKDYGGVSLPEWVCTAFHTSGYDTQAIVQNNDSTEYGLFQINNKIWCKDDQNPHSRNICNISCDKFLDDDLTDDIVCAKKILDKVGINYWLAHKALCSEKLDQWLCEKL
Regarding B2, the “Ka” value in series [4] (setting [7]) was 2.8e+08 M⁻¹; in series [4] (setting [8]) it was 5.7e+08 M⁻¹.

B3: D87N-BAMLET: protein-lipid complex of D87N mutant bovine α-lactalbumin eluted from C18:1 conditioned column (protein, UniProt P00711 20-142, looked up, variant D87N)
Alpha-lactalbumin: EQLTKCEVFRELKDLKGYGGVSLPEWVCTTFHTSGYDTQAIVQNNDSTEYGLFQINNKIWCKDDQNPHSSNICNISCDKFLDDDLTNDIMCVKKILDKVGINYWLAHKALCSEKLDQWLCEKL
modifications: complex with C18:1 fatty acid
notes: protein-lipid complex of D87N mutant bovine α-lactalbumin eluted from C18:1 conditioned column
B3: the “DNA fragmentation” value in the series with L1210 leukaemia cells [2] was “induced DNA fragmentation similar to the BAMLET control”. Also, the cell viability in the series with L1210 leukaemia cells [3] (setting [9]) amounted to 17%. This molecule also showed an LD50 with L1210 leukaemia cells [3] of 0.4 mg/mL.

B4: D87A-BAMLET: protein-lipid complex of D87A mutant bovine α-lactalbumin eluted from C18:1 conditioned column (protein, UniProt P00711 20-142, looked up, variant D87A)
Alpha-lactalbumin: EQLTKCEVFRELKDLKGYGGVSLPEWVCTTFHTSGYDTQAIVQNNDSTEYGLFQINNKIWCKDDQNPHSSNICNISCDKFLDDDLTADIMCVKKILDKVGINYWLAHKALCSEKLDQWLCEKL
modifications: complex with C18:1 fatty acid
notes: protein-lipid complex of D87A mutant bovine α-lactalbumin eluted from C18:1 conditioned column
For the molecule B4, the “Ca2+ binding” value in series [1] was “no difference compared to the titration of quin 2 alone; also recorded: does not bind Ca^2+”. In addition, in the series on L1210 leukaemia cells [2], the “DNA fragmentation” value is “induced DNA fragmentation similar to the BAMLET control”. This molecule also gave a cell viability in the series on L1210 leukaemia cells [3] (setting [9]) of 13%. In the series on L1210 leukaemia cells [3], the LD50 is 0.4 mg/mL.

B5: D87N: bovine α-lactalbumin with aspartic acid at position 87 substituted by asparagine (protein, UniProt P00711 20-142, looked up, variant D87N)
Alpha-lactalbumin: EQLTKCEVFRELKDLKGYGGVSLPEWVCTTFHTSGYDTQAIVQNNDSTEYGLFQINNKIWCKDDQNPHSSNICNISCDKFLDDDLTNDIMCVKKILDKVGINYWLAHKALCSEKLDQWLCEKL
As for B5, in series [4], the “calcium binding” value is on record as “still bound calcium but with lower affinity”. For the same molecule, in the series with L1210 leukaemia cells [3], the “apoptosis induction / biological activity” value is “biologically inactive”.

B6: HAMLET (protein, UniProt P00709 20-142, looked up)
Alpha-lactalbumin: KQFTKCELSQLLKDIDGYGGIALPELICTMFHTSGYDTQAIVENNESTEYGLFQISNKLWCKSSQVPQSRNICDISCDKFLDDDITDDIMCAKKILDIKGIDYWLAHKALCTEKLEQWLCEKL
modifications: complex with oleic acid
Usually Kd stands for the concentration at which binding is half-saturated. For B6, the “Ka, calcium association constant” value is 5.3.10^6 M^−1 and 5.3 · 10^6 M^−1 in series [1] (150 mM NaCl (physiological salt)); 5.9e+09 M⁻¹ and 5.9e+08 M⁻¹ in series [1] (low salt (no added salt)). Further, the equilibrium dissociation constant (Kd) in series [1] (low salt) turned out to be 1.7 nM; in series [1] (physiological salt, 0.15 M NaCl), 190 nM. The results for the “calcium affinity, times lower than α-lactalbumin” value in series [1] (no salt added) and in series [1] (physiological salt concentration) were 3 times and 1.6 times, respectively. Also, the “Ca2+ binding” value in series [1] is reported as “shown to bind Ca^2+”. In addition, the “DNA fragmentation” value is listed as “DNA fragmentation was induced” with L1210 leukaemia cells [2] and “DNA fragmentation was observed” in the series on L1210 leukaemia cells [2] (listed as C18:1:9cis complex). Also, the “loss of cell viability” value in the series with L1210 leukaemia cells [3] is listed as “died rapidly”. Also, the “apoptosis induction” value with L1210 leukaemia cells [3] (L1210, HAMLET 0.3 mg (0.3 mg/ml)) is “induced apoptosis; also recorded: sufficient to kill the cells by apoptosis”. In the series on L1210 leukaemia cells [3] (setting [6]), this molecule came in with a cell viability of 0%. In the series with L1210 leukaemia cells [3], this molecule gave an LD50 of 0.2 mg/mL. For the same molecule, in the series with L1210 leukaemia cells [3], the “apoptosis induction / biological activity” value is listed as “cause apoptosis”.

B7: C18:1:11cis complex: complex of apo-α-lactalbumin with C18:1:11cis fatty acid eluted after 1M NaCl (protein, UniProt P00709 20-142, looked up)
Alpha-lactalbumin: KQFTKCELSQLLKDIDGYGGIALPELICTMFHTSGYDTQAIVENNESTEYGLFQISNKLWCKSSQVPQSRNICDISCDKFLDDDITDDIMCAKKILDIKGIDYWLAHKALCTEKLEQWLCEKL
modifications: complex with C18:1:11cis fatty acid
notes: complex of apo-α-lactalbumin with C18:1:11cis fatty acid eluted after 1M NaCl
B7: in the series on L1210 leukaemia cells [2], the “DNA fragmentation” value is “DNA fragmentation was observed”. The cell viability in the series on L1210 leukaemia cells [3] (setting [6]) is reported as 0%. For the same molecule, the “apoptosis induction / biological activity” value with L1210 leukaemia cells [3] is reported as “cause apoptosis”.
